Experimental data: paper PMC2709796

Molecular target: human LRP purified from placenta (human)
Assay: SPR

Kd: 36.5 nM
koff: 0.00015 s⁻¹
kon: 4110 M⁻¹ s⁻¹
B1: hexa-His-tagged fragment of sorLA including the YWTD-repeated β-propeller, the single EGF-domain and the 11 CR-domains (residues 728-1526) (domain or fragment)
chain: YRKISGDTCSGGDVEARLEGELVPCPLAEENEFILYAVRKSIYRYDLASGATEQLPLTGLRAAVALDFDYEHNCLYWSDLALDVIQRLCLNGSTGQEVIINSGLETVEALAFEPLSQLLYWVDAGFKKIEVANPDGDFRLTIVNSSVLDRPRALVLVPQEGVMFWTDWGDLKPGIYRSNMDGSAAYHLVSEDVKWPNGISVDDQWIYWTDAYLECIERITFSGQQRSVILDNLPHPYAIAVFKNEIYWDDWSQLSIFRASKYSGSQMEILANQLTGLMDMKIFYKGKNTGSNACVPRPCSLLCLPKANNSRSCRCPEDVSSSVLPSGDLMCDCPQGYQLKNNTCVKQENTCLRNQYRCSNGNCINSIWWCDFDNDCGDMSDERNCPTTICDLDTQFRCQESGTCIPLSYKCDLEDDCGDNSDESHCEMHQCRSDEYNCSSGMCIRSSWVCDGDNDCRDWSDEANCTAIYHTCEASNFQCRNGHCIPQRWACDGDTDCQDGSDEDPVNCEKKCNGFRCPNGTCIPSSKHCDGLRDCSDGSDEQHCEPLCTHFMDFVCKNRQQCLFHSMVCDGIIQCRDGSDEDAAFAGCSQDPEFHKVCDEFGFQCQNGVCISLIWKCDGMDDCGDYSDEANCENPTEAPNCSRYFQFRCENGHCIPNRWKCDRENDCGDWSDEKDCGDSHILPFSTPGPSTCLPNYYRCSSGTCVMDTWVCDGYRDCADGSDEEACPLLANVTAASTPTQLGRCDRFEFECHQPKTCIPNWKRCDGHQDCQDGRDEANCPTHSTLTCMSREFQCEDGEA
